The test addresses tobacco ethylene-responsive transcription factor ERF4 (tobacco) (UniProt Q40478). The test is described as follows: cell-based or functional assay.

tobacco ethylene-responsive transcription factor ERF4 (tobacco), sequence (Q40478 whole entry): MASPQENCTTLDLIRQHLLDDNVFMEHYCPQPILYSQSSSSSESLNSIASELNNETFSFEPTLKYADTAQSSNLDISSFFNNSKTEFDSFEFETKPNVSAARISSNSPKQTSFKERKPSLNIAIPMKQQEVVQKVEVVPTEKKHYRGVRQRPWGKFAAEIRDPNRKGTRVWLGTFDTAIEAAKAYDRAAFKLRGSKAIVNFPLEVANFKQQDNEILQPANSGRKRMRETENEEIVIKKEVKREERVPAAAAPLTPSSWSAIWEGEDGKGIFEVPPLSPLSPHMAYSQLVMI

On to “Multiprotein Bridging Factor 1 of Oryza sativa (oMBF1)”, for which the GUS activity (pERE-GUS reporter, transient assay in tobacco leaves) stood at 5.5 fold.

The record behind these values is patent publication US20050132443A1.
